The record followed here is patent publication US20240209086A1 (PETMEDIX, published 2024).

The target of assay [1] is T1, canine CD20 on cells (HEK293, MDCK II, CLBL-1 or native B cells) (canine, UniProt Q3C2E2 1-297).
T1 construct: also called dCD20; cCD20
T1 chain: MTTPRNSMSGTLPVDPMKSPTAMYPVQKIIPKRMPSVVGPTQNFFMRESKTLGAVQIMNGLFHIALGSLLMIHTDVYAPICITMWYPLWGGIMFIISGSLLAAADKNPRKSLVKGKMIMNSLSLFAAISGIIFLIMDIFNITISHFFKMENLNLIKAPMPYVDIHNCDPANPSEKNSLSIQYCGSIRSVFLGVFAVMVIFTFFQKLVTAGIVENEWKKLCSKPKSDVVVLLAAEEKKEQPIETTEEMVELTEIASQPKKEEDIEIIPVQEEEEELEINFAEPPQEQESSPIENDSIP
The assay is described as follows: flow cytometry, canine CD20 HEK293 cells, 10 µg/ml, FITC anti-canine IgG. How it is done: A CD20 binding screen was performed on candidate proteins produced from the canine CD20 immunisation as described in Examples 2 and 3. CHO cells supernatants containing candidate antibodies were diluted to 10 μg/ml in FACS buffer (PBS containing 3% FBS) and screened for their ability to bind canine CD20 expressed on cell surface. In brief, 1-2×10⁵ canine CD20-expressing HEK cells were incubated with candidate mAbs for one hour at 4° C., at a fixed concentration of 10 μg/ml followed by incubation with 5 μg/ml of FITC-conjugated anti-canine IgG secondary antibody (Bethyl Laboratories) for 1 hour at 4° C. Cells incubated with anti-canine IgG FITC secondary antibody and without primary anti-canine CD20 antibody, or with isotype control primary antibody, were used as negative controls. The data were acquired on either a Beckman Coulter CytoFLEX or a BD Accuri C6 Plus flow cytometer and analysed using FlowJo software.

For assay [2], the target named is canine CD3 on canine T cells (canine PBMC) (canine, UniProt P27597 22-202). The assay can be described thus: cell-based or functional assay.
Assay [3] deals with T2, canine CD3εδ-Fc (heterodimer of canine CD3ε-hIgG4PE-knob and canine CD3δ-hIgG4PE-hole) (canine).
T2 construct: also called CD3εδ-Fc fusion protein; copies: 1 + 1
The assay can be described thus: SPR (Biacore 8K), CD3εδ-Fc amine-coupled to CM5 chip, multi-cycle kinetics, antibody 600-7.4 nM. On the procedure: Binding affinity of shortlisted candidates, described in Example 3, were assessed using Biacore 8K (Cytiva). Briefly, a CM5 Sensor Chip (Cytiva) was docked onto a Biacore 8K, equilibrated for 30′ at RT and then Running Buffer (10 mM HEPES pH6 150 mM NaCl 3 mM EDTA and 0.005% Tween20) was applied to the SPR chip surface. Canine CD3εδ-Fc was diluted into 10 mM acetate buffer pH4.5 and immobilised using standard amine coupling reaction. Antibodies dilutions were prepared by diluting the shortlisted candidates from 600 nM to 7.4 nM (5 concentrations with 1:3 dilutions) in running buffer and kinetics was assessed using multi-cycle kinetics method (120 sec association-300 sec dissociation). Kinetics and/or Affinity quantification was performed using Biacore Insight following standard analyses methods.

T2 sequence (chain, as listed by the source mutant limits assumed): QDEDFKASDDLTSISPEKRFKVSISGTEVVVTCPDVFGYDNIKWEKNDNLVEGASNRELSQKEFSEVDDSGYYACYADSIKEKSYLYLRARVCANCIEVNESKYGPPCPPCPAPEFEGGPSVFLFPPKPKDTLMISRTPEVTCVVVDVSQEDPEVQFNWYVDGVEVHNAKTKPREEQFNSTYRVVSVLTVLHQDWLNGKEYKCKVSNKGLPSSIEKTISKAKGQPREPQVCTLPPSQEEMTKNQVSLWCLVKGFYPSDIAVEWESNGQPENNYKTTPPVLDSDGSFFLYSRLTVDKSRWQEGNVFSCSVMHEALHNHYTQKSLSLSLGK
canine CD3 on canine T cells (canine PBMC), sequence (P27597 22-202 limits assumed, chain 1 of 3): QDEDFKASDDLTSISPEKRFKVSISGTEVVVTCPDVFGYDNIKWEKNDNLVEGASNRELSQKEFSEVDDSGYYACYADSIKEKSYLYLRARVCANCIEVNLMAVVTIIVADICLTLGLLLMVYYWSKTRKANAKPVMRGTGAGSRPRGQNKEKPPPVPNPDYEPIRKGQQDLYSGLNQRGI
canine CD3 on canine T cells (canine PBMC), sequence (chain, as listed by the source limits assumed, chain 2 of 3): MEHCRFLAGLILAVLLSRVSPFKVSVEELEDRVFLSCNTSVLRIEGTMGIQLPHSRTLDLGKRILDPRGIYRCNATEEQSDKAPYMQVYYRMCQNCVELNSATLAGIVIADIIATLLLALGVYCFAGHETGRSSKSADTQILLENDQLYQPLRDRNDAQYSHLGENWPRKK
canine CD3 on canine T cells (canine PBMC), sequence (chain, as listed by the source limits assumed, chain 3 of 3): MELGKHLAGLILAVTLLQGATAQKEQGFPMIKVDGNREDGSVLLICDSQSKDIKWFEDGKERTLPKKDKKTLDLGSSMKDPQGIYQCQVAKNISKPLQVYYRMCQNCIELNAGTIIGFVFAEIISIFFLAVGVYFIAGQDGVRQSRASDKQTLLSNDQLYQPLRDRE

B1: PMX255 (monospecific anti-canine CD20, canine IgG-B, lambda C5) (antibody, V domains shown)
VH: EVQLVESGGDLVKPGGSLRLSCVASGFTFSRYHMSWIRQAPGKGLQWVAFIDSDGSGARYADAVKGRFTFSRDNAKNTLYLQMNSLRAEDTAVYYCTSLEYWGQGTLVTVSS
VL: SYVLTQLPSKNVTLKQPAHITCGGDNVGSKSVHWYQQKLGQAPVLIIYYDSRRPTGIPERFSGANSGNTATLTISGALAEDEADYYCQVWDSSANVFGGGTHLTVLG
With B1, in assay [1], the binding result was “binds”.

B2: PMX271 (monospecific anti-canine CD20, canine IgG-B, lambda C5) (antibody, V domains shown)
VH: AVQLVESGGDLVKPGGSLRLSCVASGITFSRYHMSWVRQAPGKGLQWVAYINSGGSATSYTDAVKGRFSISRDNGKNTLYLQMNSLRVEDSAVYYCTTLDLWGQGTLVTVSS
VL: SYVLTQLPSKNVTLKQPAHITCGGDNIGSKSVHWYQQKLGQAPVLIIYYDSRRPTGIPERFSGANSGNTATLTINGALAEDEADYYCQMWDSSANVFGGGTHLTVLG
On to B2, for which the binding result in assay [1] was “binds”.

B3: PMX270 (monospecific anti-canine CD20, canine IgG-B, lambda C5) (antibody, V domains shown)
VH: EVQLVESGGDLVKPGGSLRLSCVASGFTFSRYYMTWVRQAPGKGLQWVAYINSDRRSTTYADAVKGRFTISRDNAKNTLYLQMNSLRAEDTAVYYCTTLEYWGQGTLVTVSS
VL: SYVLTQLPSKNVTLKQPAHITCGGDNIGSKSVHWYQQKLGQAPVLIIYYDSRRPTGIPERFSGANSGNTATLTINGALAEDEADYYCQVWDSSANVFGGGTHLTVLG
Take B3: the binding result in assay [1] is “binds”.

B4: PMX269 (monospecific anti-canine CD20, canine IgG-B, lambda C5) (antibody, V domains shown)
VH: EVRLVESGGDLVKPGGSLRLSCVASGLTFNRYYMSWVRQGPGKGLQWVAYIDSGGSPTTYADTVKGRFTISRDNAKNTLYLQMNSLRVEDTAVYYCTTLEYWGQGTLVTVSS
VL: SYVLTQLPSKNVTLKQPAHITCGGDNIGSKSVHWYQQKLGQAPVLIIYYDSSRPTGIPERFSGANSGNTATLTISGALAEDEADYYCQVWDTSANVFGGGTHLTVLG
On to B4, for which the binding result in assay [1] is “binds”.

B5: PMX268 (monospecific anti-canine CD20, canine IgG-B, lambda C5) (antibody, V domains shown)
VH: EVQLVESGGDLMKPGGSLRLSCVASGITFSGYHMSWVRQAPGKGLQWVAFINSGRKNTAYADAVKGRFTISRDNAKNTLYLQMNSLRAEDTAIYYCTTLEFWGQGTLVTVSS
VL: SYVLTQLPSKNVTLKQPAHITCGGDNIGSKNVHWYQQKLGQAPVLIIYYDSRRPTGIPERFSGVNSGNTATLTINGALAEDEADYYCQMWDSSANVFGGGTHLTVLG
On to B5, for which the binding result in assay [1] is “binds”.

B6: PMX172 in bispecific format (canine CD3 arm PMX172 x Rituximab arm, human IgG4PE knob-in-hole) (bispecific antibody)
heavy 1: EVQLVESGGDLVKPGGSLRLSCVASGFTFSSYHMSWVRQAPGKGLQWVAYSNSGGSRTSYADAVKGRFTISRDNAKNTLYLQMNSLRAEDTAVYYCASEGGGGRYGYKDYGMDYWGHGTSLFVSSASTKGPSVFPLAPCSRSTSESTAALGCLVKDYFPEPVTVSWNSGALTSGVHTFPAVLQSSGLYSLSSVVTVPSSSLGTKTYTCNVDHKPSNTKVDKRVESKYGPPCPPCPAPEFEGGPSVFLFPPKPKDTLMISRTPEVTCVVVDVSQEDPEVQFNWYVDGVEVHNAKTKPREEQFNSTYRVVSVLTVLHQDWLNGKEYKCKVSNKGLPSSIEKTISKAKGQPREPQVYTLPPSQCEMTKNQVSLSCAVKGFYPSDIAVEWESNGQPENNYKTTPPVLDSDGSFFLVSRLTVDKSRWQEGNVFSCSVMHEALHNRFTQKSLSLSLGK
light 1: SYVLTQLPSKNVTLKQPAHITCGGDNIGSKSVHWYQQKLGQAPVLIIYYDSSRPTGIPERFSGANSGNTATLTISGALAEDEADYYCQVWDSSAKAWVFGEGTQLTVLRTVAAPSVFIFPPSDEQLKSGTASVVCLLNNFYPREAKVQWKVDNALQSGNSQESVTEQDSKDSTYSLSSTLTLSKADYEKHKVYACEVTHQGLSSPVTKSFNRGEC
heavy 2: not shown
light 2: QIVLSQSPAILSASPGEKVTMTCRASSSVSYIHWFQQKPGSSPKPWIYATSNLASGVPVRFSGSGSGTSYSLTISRVEAEDAATYYCQQWTSNPPTFGGGTKLEIKRTVAAPSVFIFPPSDEQLKSGTASVVCLLNNFYPREAKVQWKVDNALQSGNSQESVTEQDSKDSTYSLSSTLTLSKADYEKHKVYACEVTHQGLSSPVTKSFNRGEC
As to B6, in assay [2], the “EC50 (M) of killing potency, bispecific killing of hCD20+GFP MDCK II cells by canine PBMC” value (“EC50 (M) of killing potency” for short) was 4.66e-09 M. The molecule also returned a Kd in assay [3] of 447 nM.

B7: PMX169 in bispecific format (canine CD3 arm PMX169 x Rituximab arm, human IgG4PE knob-in-hole) (bispecific antibody)
heavy 1: EVQVVESGGDLVKPGGSLRLSCVTSGFAFNNYHMSWVRQAPGKGLQWVAYINSGGSRISYADAVKGRFTISRDNAKNTLYLQMNSLRAEDTAVYYCASEGGGEIYGFKDYGMDYWGHGTSLFVSSASTKGPSVFPLAPCSRSTSESTAALGCLVKDYFPEPVTVSWNSGALTSGVHTFPAVLQSSGLYSLSSVVTVPSSSLGTKTYTCNVDHKPSNTKVDKRVESKYGPPCPPCPAPEFEGGPSVFLFPPKPKDTLMISRTPEVTCVVVDVSQEDPEVQFNWYVDGVEVHNAKTKPREEQFNSTYRVVSVLTVLHQDWLNGKEYKCKVSNKGLPSSIEKTISKAKGQPREPQVYTLPPSQCEMTKNQVSLSCAVKGFYPSDIAVEWESNGQPENNYKTTPPVLDSDGSFFLVSRLTVDKSRWQEGNVFSCSVMHEALHNRFTQKSLSLSLGK
light 1: SYVLTQLPSKNVTLKQPAHITCGGDNIGSKSVHWYQQKLGQAPVLIIYYDSSRPTGIPERFSGANSGNTATLTISGALAEDEADYYCQVWDSSAKAWVFGEGTQLTVLRTVAAPSVFIFPPSDEQLKSGTASVVCLLNNFYPREAKVQWKVDNALQSGNSQESVTEQDSKDSTYSLSSTLTLSKADYEKHKVYACEVTHQGLSSPVTKSFNRGEC
heavy 2: not shown
light 2: QIVLSQSPAILSASPGEKVTMTCRASSSVSYIHWFQQKPGSSPKPWIYATSNLASGVPVRFSGSGSGTSYSLTISRVEAEDAATYYCQQWTSNPPTFGGGTKLEIKRTVAAPSVFIFPPSDEQLKSGTASVVCLLNNFYPREAKVQWKVDNALQSGNSQESVTEQDSKDSTYSLSSTLTLSKADYEKHKVYACEVTHQGLSSPVTKSFNRGEC
Consider B7, for which, in assay [2], the “EC50 (M) of killing potency” value stood at 1.4e-08 M. In assay [3], this molecule registered a dissociation constant Kd of 854 nM.

B8: PMX170 in bispecific format (canine CD3 arm PMX170 x Rituximab arm, human IgG4PE knob-in-hole) (bispecific antibody)
heavy 1: EVQLVESGGDLVKPGGSLRLSCVASGFTFSSYHMSWVRQAPGKGLQWVAYSNSGGSRTSYADAVKGRFTISRDNAKNTLYLQMSSLRAEDTAVYYCASEGGGGRYGFKDYGMDYWGHGTSLFVSSASTKGPSVFPLAPCSRSTSESTAALGCLVKDYFPEPVTVSWNSGALTSGVHTFPAVLQSSGLYSLSSVVTVPSSSLGTKTYTCNVDHKPSNTKVDKRVESKYGPPCPPCPAPEFEGGPSVFLFPPKPKDTLMISRTPEVTCVVVDVSQEDPEVQFNWYVDGVEVHNAKTKPREEQFNSTYRVVSVLTVLHQDWLNGKEYKCKVSNKGLPSSIEKTISKAKGQPREPQVYTLPPSQCEMTKNQVSLSCAVKGFYPSDIAVEWESNGQPENNYKTTPPVLDSDGSFFLVSRLTVDKSRWQEGNVFSCSVMHEALHNRFTQKSLSLSLGK
light 1: SYVLTQLPSKNVTLKQPAHITCGGDNIGSKSVHWYQQKLGQAPVLIIYYDSSRPTGIPERFSGANSGNTATLTISGALAEDEADYYCQVWDSSAKAWVFGEGTQLTVLRTVAAPSVFIFPPSDEQLKSGTASVVCLLNNFYPREAKVQWKVDNALQSGNSQESVTEQDSKDSTYSLSSTLTLSKADYEKHKVYACEVTHQGLSSPVTKSFNRGEC
heavy 2: not shown
light 2: QIVLSQSPAILSASPGEKVTMTCRASSSVSYIHWFQQKPGSSPKPWIYATSNLASGVPVRFSGSGSGTSYSLTISRVEAEDAATYYCQQWTSNPPTFGGGTKLEIKRTVAAPSVFIFPPSDEQLKSGTASVVCLLNNFYPREAKVQWKVDNALQSGNSQESVTEQDSKDSTYSLSSTLTLSKADYEKHKVYACEVTHQGLSSPVTKSFNRGEC
B8: the “EC50 (M) of killing potency” value in assay [2] worked out at 3.32e-09 M. Moreover, in assay [3], binding was put at a Kd of 304 nM.
